Our source for the Kd values is article PMC12846707, “Structural and Functional Analysis of Porcine CR1-like Proteins in C4b-Mediated Immune Responses” (Veterinary Sciences, 2025).

To fix the notation:
B1: Recombinant C4b α chain (domain or fragment)
chain: AMELLQEEELIEEDDIPVRSFFPENWLWRVEEVPHSLQLSLLLPDSLTTWEIHGVSLSKSTGLCVATPARVRVFREFHLHLRLPVSIHRFEQLELRPVLYNYLDKDVPVSVHVSPVEGLCLAGGGGLAQQVLVPAGSARPVGFSVVPISAAAVSLKVVARGSFDFPVGDAVSKILQIANEGAIHQEELVYALNPQNVLGRNLEIPGHSDPNVIPDGDFRSFVRLTASDPLDTLGSEGALSPGGLASLLRLPRGCAEQTMFYLAPTLAASRYLDKTEQWSTLPPETKDHAVDLIQKGYTRIQEFRKNDGSYGAWLHRESSTWLTAFVLKVLSLAQEQVGGSPEKLQETAAWLLLQQKEDGSFHDPCPVIHRDMQGGLVGNDEKVALTAFVVIALHHGLAVFQDRNAEQFKRVENAISTANDFLGEKVSSGLLGSHAAAISAYALSLSGAPEQLQDIAHNNLMAMAQKIGDHLFWGTVPSSQSNTLSPTPAPQRPTDPMPQAPALWIETTAYALLHLLIREGKAEMADQTASWLTRQGSYKGGFRSTQDTVIALDALSAYWILSHTTEEKELNVTLSSMSRGGFKSHVVRLTNHQVKGLEEELQFSLGSKINVKVGGNSKGTLKILRAYNVIDLKNTTCQDLQIEVTVKGHVEYMLEANEDYEEYEYEDLPAQDDPGAHSQPVTPLQLFDG
B2: Recombinant CR1-like CCPs 1-3 (domain or fragment)
chain: not shown

Experiment in all cases: SPR; Biacore 8K, single-cycle; C4bα and C4bβ covalently immobilised on CM5 chip (about 1500 RU); CR1-like fragments or mutant as mobile phase, 1.56 × 10^-2 to 4 μM; 25 °C; 10 mM HEPES pH 7.4, 150 mM NaCl, 0.05% Tween-20; apparent KD = kd/ka
Common to all, as to conditions: both partners purified

In assay [1] the target is T1, Recombinant CR1-like CCPs 12-14 (pig).
T1 construct: porcine CR1-like, CCP domains 12-14; Section 2.12 describes 6His-sumo (N-terminal) and flag (C-terminal) tags and insect cells for 'CR1-like fragments' in general

The target of a further assay is T2, Recombinant C4b β chain (pig).
T2 construct: beta chain of porcine complement C4b, expressed as a separate chain; source: Escherichia coli (pET28a), purified (Ni-NTA, SP-HP cation exchange); not shown: 6His, N-terminal, kept; Flag-ppase, N-terminal, kept

For the assay “Recombinant C4b α chain”, the target named is B1.

Turning to B1, the Kd in assay [1] amounted to 317 nM.
As for B2, the Kd came out at 173 nM with Recombinant C4b β chain and 226 nM with Recombinant C4b α chain.
